In US12564617B2, “Methods for modulating macrophage activity” (Riptide Bioscience, Inc., priority 2019, dated 2026):

Biological target: T1, recombinant mouse CD206 full length protein (Mus musculus, UniProt Q61830)
T1 construct: honeybee melittin signal peptide (N); host or cells: Expi293E cells
T1 sequence (Q61830 23-1387): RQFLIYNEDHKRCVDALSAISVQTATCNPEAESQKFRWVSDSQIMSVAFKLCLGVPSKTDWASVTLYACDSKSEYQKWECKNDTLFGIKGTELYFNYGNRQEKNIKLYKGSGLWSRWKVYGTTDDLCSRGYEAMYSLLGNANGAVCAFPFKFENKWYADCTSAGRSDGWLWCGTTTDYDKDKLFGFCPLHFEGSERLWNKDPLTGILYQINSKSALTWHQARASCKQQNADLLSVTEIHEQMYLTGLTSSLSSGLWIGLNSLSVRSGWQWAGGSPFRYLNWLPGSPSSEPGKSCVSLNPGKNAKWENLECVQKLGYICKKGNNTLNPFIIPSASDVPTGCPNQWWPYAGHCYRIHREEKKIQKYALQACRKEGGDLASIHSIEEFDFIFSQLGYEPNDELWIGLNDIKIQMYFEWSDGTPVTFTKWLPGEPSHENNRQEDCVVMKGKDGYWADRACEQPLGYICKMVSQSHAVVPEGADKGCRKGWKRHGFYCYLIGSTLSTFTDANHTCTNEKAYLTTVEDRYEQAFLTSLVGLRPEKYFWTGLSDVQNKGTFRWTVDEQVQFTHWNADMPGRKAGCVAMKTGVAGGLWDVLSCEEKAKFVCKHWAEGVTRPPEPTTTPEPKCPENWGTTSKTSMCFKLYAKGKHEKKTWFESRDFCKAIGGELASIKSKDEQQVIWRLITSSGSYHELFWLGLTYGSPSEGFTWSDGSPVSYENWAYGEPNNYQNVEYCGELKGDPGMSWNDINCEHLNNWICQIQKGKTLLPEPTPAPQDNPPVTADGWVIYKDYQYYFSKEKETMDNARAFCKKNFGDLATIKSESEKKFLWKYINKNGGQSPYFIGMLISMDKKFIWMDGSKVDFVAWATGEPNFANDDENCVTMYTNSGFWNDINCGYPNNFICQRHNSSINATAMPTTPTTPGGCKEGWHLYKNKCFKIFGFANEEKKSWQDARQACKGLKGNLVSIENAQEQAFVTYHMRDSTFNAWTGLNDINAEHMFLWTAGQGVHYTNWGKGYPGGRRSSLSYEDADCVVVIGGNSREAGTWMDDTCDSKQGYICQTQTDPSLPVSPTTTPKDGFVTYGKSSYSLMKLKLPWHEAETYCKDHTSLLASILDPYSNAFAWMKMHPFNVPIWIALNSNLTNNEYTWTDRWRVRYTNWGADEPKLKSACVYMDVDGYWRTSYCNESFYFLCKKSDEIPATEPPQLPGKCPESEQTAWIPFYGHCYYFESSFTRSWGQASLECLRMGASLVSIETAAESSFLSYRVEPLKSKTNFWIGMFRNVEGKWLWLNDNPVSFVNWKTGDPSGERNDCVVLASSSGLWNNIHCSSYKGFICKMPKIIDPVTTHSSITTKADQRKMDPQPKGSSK
Experiment: Negative stain electron microscopy of open vs closed CD206 conformation
Format: biochemical
Conditions: negative stain EM
Method: A 3 μL aliquot containing ˜0.01 mg/mL of the sample was applied for 20 seconds onto a carbon-coated 200 Cu mesh grid that had been glow discharged at 30 mA for 30 sec, then negatively stained with 0.7% (w/v) uranyl formate for 40 sec. […] Images were acquired with an Eagle 2k×2k CCD camera (http://FEI.com) using a nominal defocus of 1500 nm and the SerialEM software (54). […] Images were acquired with a Ceta 4k×4k CCD camera (http://FEI.com) using a nominal defocus of 1200 nm and the EPU software. For electron microscopy data processing, particles were selected from the micrographs, extracted, and a reference-free 2D class averages were obtained using RELION 2.1.0. Microscale thermophoresis and cellular thermal shift assays.

Sequence	closed vs open conformation of CD206
EKLSAFRNFF [AVP1]	lower ratios of closed-to-open conformations
FFRKSKEKIG [LL37F1, 10mer motif from cathelicidin antimicrobial peptide [Homo sapiens]]	lower ratios of closed-to-open conformations
